± gives the uncertainty stated by the source.
Test: protein stability index of a GFP-peptide fusion (yeast GPS) (PSI 1-4); higher = more stable; sorted into four equal gates, so the index is relative within each strain
How it was run: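 Plasmids isolated from each sorting gate were PCR-amplified and Illumina-sequenced, and barcodes assigned the reads to strains. The gates, four of equal size, were set by GFP/Cherry fluorescence ratio on mid-log cultures in leucine-free medium. These cultures were yeast carrying a pooled library of tiled 17-residue yeast protein peptides fused downstream of GFP on a plasmid that also expresses Cherry. The protein stability index is the sum of every gate's read frequency times its gate number.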

## SSHAKGIVLEKLGIESK [RPS23A]
doa10∆
  protein stability index: 3.02 ± 0.15
pdr5∆
  protein stability index: 2.88 ± 0.13
san1∆
  protein stability index: 2.67 ± 0.095
ubr1∆
  protein stability index: 3.17 ± 0.17

## SEAKRTKFSNPAIPPVI [BRR2]
doa10∆
  protein stability index: 2.13 ± 0.06
pdr5∆
  protein stability index: 2.25 ± 0.054
san1∆
  protein stability index: 2.45 ± 0.067
ubr1∆
  protein stability index: 2.44 ± 0.056

## TANDRQINNVHLIPNEI [RPN4]
doa10∆
  protein stability index: 2.88 ± 0.063
pdr5∆
  protein stability index: 3.02 ± 0.062
san1∆
  protein stability index: 2.92 ± 0.052
ubr1∆
  protein stability index: 2.94 ± 0.055

## LEEIRGNPLSIGTLEEI [RPT2]
doa10∆
  protein stability index: 3.29 ± 0.1
pdr5∆
  protein stability index: 3.42 ± 0.14
san1∆
  protein stability index: 3.13 ± 0.076
ubr1∆
  protein stability index: 3.25 ± 0.17

## TVIRGNSIISLEALDAI [SMX2]
doa10∆
  protein stability index: 2.79 ± 0.075
pdr5∆
  protein stability index: 2.43 ± 0.09
san1∆
  protein stability index: 2.15 ± 0.11
ubr1∆
  protein stability index: 2.57 ± 0.055

## VNNGNIPSQRGTSTTHG [SIR3]
doa10∆
  protein stability index: 2.37 ± 0.16
pdr5∆
  protein stability index: 2.85 ± 0.088
san1∆
  protein stability index: 2.78 ± 0.094
ubr1∆
  protein stability index: 2.73 ± 0.072

## DYSEIQRSRRKFSERRK [DSN1]
doa10∆
  protein stability index: 2.86 ± 0.095
pdr5∆
  protein stability index: 3.35 ± 0.24
san1∆
  protein stability index: 3.46 ± 0.087
ubr1∆
  protein stability index: 2.75 ± 0.16

## KDSYINANTIETAKMIE [FAS2]
doa10∆
  protein stability index: 3.14 ± 0.045
pdr5∆
  protein stability index: 3.07 ± 0.044
san1∆
  protein stability index: 3.18 ± 0.032
ubr1∆
  protein stability index: 3.16 ± 0.044

## DPNIKVNDTVKIDLASG [RPS4A]
doa10∆
  protein stability index: 2.81 ± 0.079
pdr5∆
  protein stability index: 2.75 ± 0.063
san1∆
  protein stability index: 2.73 ± 0.087
ubr1∆
  protein stability index: 2.41 ± 0.053

## QLESYEYMVQYIDEMYN [RRI1]
doa10∆
  protein stability index: 2.74 ± 0.052
pdr5∆
  protein stability index: 2.89 ± 0.075
san1∆
  protein stability index: 3.27 ± 0.14
ubr1∆
  protein stability index: 2.42 ± 0.071

## LEYYAMLSKTKVYYFQG [RPL30]
doa10∆
  protein stability index: 2.4 ± 0.096
pdr5∆
  protein stability index: 3.08 ± 0.1
san1∆
  protein stability index: 2.09 ± 0.079
ubr1∆
  protein stability index: 2.89 ± 0.13

## RVPIRSEYKVAFPHLYN [PRP8]
doa10∆
  protein stability index: 2.54 ± 0.069
pdr5∆
  protein stability index: 2.27 ± 0.062
san1∆
  protein stability index: 2.34 ± 0.083
ubr1∆
  protein stability index: 2.08 ± 0.041

## LSSMRFKPSQEPEFHAL [RRI1]
doa10∆
  protein stability index: 2.58 ± 0.053
pdr5∆
  protein stability index: 2.75 ± 0.05
san1∆
  protein stability index: 2.75 ± 0.075
ubr1∆
  protein stability index: 2.42 ± 0.04

## SAGAVFKSSVEMGKTDK [YOR098C/NUP1]
doa10∆
  protein stability index: 3.5 ± 0.095
pdr5∆
  protein stability index: 3.25 ± 0.1
san1∆
  protein stability index: 3.29 ± 0.058
ubr1∆
  protein stability index: 3.47 ± 0.047

## GANDLGFTASVSNQENA [MED1]
doa10∆
  protein stability index: 3.06 ± 0.083
pdr5∆
  protein stability index: 3.17 ± 0.11
san1∆
  protein stability index: 2.93 ± 0.078
ubr1∆
  protein stability index: 3.39 ± 0.11

## YITARIMAKRPFDKKSN [FAS1]
doa10∆
  protein stability index: 2.74 ± 0.094
pdr5∆
  protein stability index: 2.79 ± 0.078
san1∆
  protein stability index: 1.96 ± 0.12
ubr1∆
  protein stability index: 2.86 ± 0.081

## FEGDSNMLICAPTGSGK [BRR2]
doa10∆
  protein stability index: 1.79 ± 0.096
pdr5∆
  protein stability index: 1.43 ± 0.075
san1∆
  protein stability index: 1.71 ± 0.14
ubr1∆
  protein stability index: 2.18 ± 0.071

## TKESQPTIEEDLTRVYK [FAS2]
doa10∆
  protein stability index: 3.46 ± 0.12
pdr5∆
  protein stability index: 3.32 ± 0.094
san1∆
  protein stability index: 3.2 ± 0.07
ubr1∆
  protein stability index: 3.48 ± 0.091

## QYTQRLSKLEKALDRHE [SRP68]
doa10∆
  protein stability index: 2.52 ± 0.046
pdr5∆
  protein stability index: 2.65 ± 0.035
san1∆
  protein stability index: 2.72 ± 0.039
ubr1∆
  protein stability index: 2.66 ± 0.037

## DKGLLPYAIMETANEIL [RPO31]
doa10∆
  protein stability index: 2.95 ± 0.14
pdr5∆
  protein stability index: 2.71 ± 0.19
ubr1∆
  protein stability index: 2.25 ± 0.13

## RQNKVQHQRIVAFVCSP [RPN10]
doa10∆
  protein stability index: 1.24 ± 0.069
pdr5∆
  protein stability index: 1.4 ± 0.12
ubr1∆
  protein stability index: 1.42 ± 0.12

## PRMASVFENYVKKTGEN [CDC53]
doa10∆
  protein stability index: 3.46 ± 0.11
pdr5∆
  protein stability index: 3.4 ± 0.087
san1∆
  protein stability index: 3.54 ± 0.065
ubr1∆
  protein stability index: 3.47 ± 0.049

## FKNTRETAQAINGWELT [RPL17A]
doa10∆
  protein stability index: 1.35 ± 0.031
pdr5∆
  protein stability index: 1.58 ± 0.04
san1∆
  protein stability index: 2.06 ± 0.062
ubr1∆
  protein stability index: 1.4 ± 0.033

## ESEKLVTPEDVMTISSL [RPC82]
doa10∆
  protein stability index: 3.23 ± 0.083
pdr5∆
  protein stability index: 3.13 ± 0.078
san1∆
  protein stability index: 3.05 ± 0.059
ubr1∆
  protein stability index: 3.26 ± 0.072

## LKVLSGDEGYNEDMVRR [SNF12]
doa10∆
  protein stability index: 3.48 ± 0.13
pdr5∆
  protein stability index: 3.22 ± 0.13
san1∆
  protein stability index: 3.25 ± 0.095
ubr1∆
  protein stability index: 3.56 ± 0.15

## VQCPTVIKLAKYPDYFP [ARP9]
doa10∆
  protein stability index: 2.15 ± 0.079
pdr5∆
  protein stability index: 1.81 ± 0.049
san1∆
  protein stability index: 2.31 ± 0.092
ubr1∆
  protein stability index: 1.82 ± 0.047

## NLTAGIIVAGYDDKNKG [PRE3]
doa10∆
  protein stability index: 2 ± 0.071
pdr5∆
  protein stability index: 2.75 ± 0.096
san1∆
  protein stability index: 2.53 ± 0.12
ubr1∆
  protein stability index: 2.16 ± 0.077

## SMFSGLDSTGFDSTAFN [MED2]
doa10∆
  protein stability index: 3.05 ± 0.044
pdr5∆
  protein stability index: 3.17 ± 0.042
san1∆
  protein stability index: 3.19 ± 0.034
ubr1∆
  protein stability index: 3.104 ± 0.03

## KNNILGSNVLKSGKTIV [RRP43]
doa10∆
  protein stability index: 3.05 ± 0.039
pdr5∆
  protein stability index: 3.11 ± 0.044
san1∆
  protein stability index: 3.04 ± 0.043
ubr1∆
  protein stability index: 3.076 ± 0.03

## SIQMEFMLRKQDPKTLV [SSN2]
doa10∆
  protein stability index: 1.73 ± 0.066
pdr5∆
  protein stability index: 2 ± 0.049
san1∆
  protein stability index: 1.82 ± 0.08
ubr1∆
  protein stability index: 2.05 ± 0.045

## VKYASPNLNMKYRKRQL [FAS2]
doa10∆
  protein stability index: 3.6 ± 0.14
pdr5∆
  protein stability index: 3.19 ± 0.09
san1∆
  protein stability index: 3.02 ± 0.093
ubr1∆
  protein stability index: 2.88 ± 0.068

## SLTPTQSDSAKVEIKKV [PRP28]
doa10∆
  protein stability index: 3.01 ± 0.12
pdr5∆
  protein stability index: 3.39 ± 0.069
san1∆
  protein stability index: 2.92 ± 0.093
ubr1∆
  protein stability index: 3.1 ± 0.06

## DIYSHEYKVITSLQGTY [YMR129W/POM152]
doa10∆
  protein stability index: 1.89 ± 0.064
pdr5∆
  protein stability index: 2.43 ± 0.07
san1∆
  protein stability index: 2.65 ± 0.075
ubr1∆
  protein stability index: 2.49 ± 0.048

## PYCPIASITGTGSNDRC [YMR129W/POM152]
doa10∆
  protein stability index: 1.96 ± 0.099
pdr5∆
  protein stability index: 1.82 ± 0.1
san1∆
  protein stability index: 1.56 ± 0.18
ubr1∆
  protein stability index: 1.64 ± 0.055

## DDVRDFVIRREVTKGEK [RPS6A]
doa10∆
  protein stability index: 3.37 ± 0.14
pdr5∆
  protein stability index: 3.4 ± 0.094
san1∆
  protein stability index: 3.08 ± 0.14
ubr1∆
  protein stability index: 3.62 ± 0.18

## TVAVMSYSGYDIEDALV [RET1]
doa10∆
  protein stability index: 2.7 ± 0.16
pdr5∆
  protein stability index: 2.15 ± 0.11
san1∆
  protein stability index: 1.97 ± 0.16
ubr1∆
  protein stability index: 2.83 ± 0.072

## GCGTVKRFNIGADPNYR [RPR2]
doa10∆
  protein stability index: 3.15 ± 0.12
pdr5∆
  protein stability index: 3.36 ± 0.092
san1∆
  protein stability index: 3.33 ± 0.09
ubr1∆
  protein stability index: 3.46 ± 0.068

## RQPSLHRLSILSHYAKI [RPO31]
doa10∆
  protein stability index: 1.74 ± 0.077
pdr5∆
  protein stability index: 2.1 ± 0.071
san1∆
  protein stability index: 1.36 ± 0.12
ubr1∆
  protein stability index: 2.13 ± 0.063

## LEAARSEKQNDEEAAGA [PRP8]
doa10∆
  protein stability index: 2.37 ± 0.097
pdr5∆
  protein stability index: 2.04 ± 0.078
san1∆
  protein stability index: 2.61 ± 0.2
ubr1∆
  protein stability index: 2.32 ± 0.078

## LPTNPTLDKPNAEATKE [CSE2]
doa10∆
  protein stability index: 2.91 ± 0.072
pdr5∆
  protein stability index: 2.87 ± 0.062
san1∆
  protein stability index: 2.89 ± 0.046
ubr1∆
  protein stability index: 2.85 ± 0.066

## ELRRPGVDNLRRMGILK [RPO31]
doa10∆
  protein stability index: 3.17 ± 0.079
pdr5∆
  protein stability index: 2.98 ± 0.067
san1∆
  protein stability index: 2.85 ± 0.06
ubr1∆
  protein stability index: 3.08 ± 0.039

## SLDDNSTSLEKQINSIK [YJL041W/NSP1]
doa10∆
  protein stability index: 2.78 ± 0.079
pdr5∆
  protein stability index: 3.08 ± 0.065
san1∆
  protein stability index: 2.97 ± 0.045
ubr1∆
  protein stability index: 2.96 ± 0.048

## KVVGPRGTLTKNLKHID [RPL9A]
doa10∆
  protein stability index: 3.27 ± 0.072
pdr5∆
  protein stability index: 2.98 ± 0.065
san1∆
  protein stability index: 2.8 ± 0.086
ubr1∆
  protein stability index: 2.35 ± 0.052

## SDFTFPEYYSTARVMGG [DIS3]
doa10∆
  protein stability index: 1.57 ± 0.073
pdr5∆
  protein stability index: 1.39 ± 0.084
ubr1∆
  protein stability index: 1.38 ± 0.13

## PPGLDALVKPETQFKLS [CDC53]
doa10∆
  protein stability index: 2.82 ± 0.058
pdr5∆
  protein stability index: 2.84 ± 0.055
san1∆
  protein stability index: 3.07 ± 0.036
ubr1∆
  protein stability index: 2.99 ± 0.046

## MSGSLKSLDKKIAKRRQ [POP3]
doa10∆
  protein stability index: 3.19 ± 0.24
pdr5∆
  protein stability index: 2.98 ± 0.21
ubr1∆
  protein stability index: 3.5 ± 0.2

## PSEDVAAPKKTRKAVRP [RPL6B]
doa10∆
  protein stability index: 2.74 ± 0.089
pdr5∆
  protein stability index: 3.08 ± 0.1
san1∆
  protein stability index: 2.93 ± 0.085
ubr1∆
  protein stability index: 2.91 ± 0.073

## CLSDYTKKISNFNSSLH [YJL039C/NUP192]
doa10∆
  protein stability index: 1.56 ± 0.061
pdr5∆
  protein stability index: 2.04 ± 0.057
san1∆
  protein stability index: 1.72 ± 0.083
ubr1∆
  protein stability index: 1.25 ± 0.036

## DVLKDGENNINFQKASA [BRN1]
doa10∆
  protein stability index: 3.31 ± 0.16
pdr5∆
  protein stability index: 3.4 ± 0.12
san1∆
  protein stability index: 3.51 ± 0.077
ubr1∆
  protein stability index: 3.31 ± 0.11

— the supplement of paper PMC9732359
